Consider one protein from paper PMC6539346, “Molecular and Structural Basis of the Proteasome α Subunit Assembly Mechanism Mediated by the Proteasome-Assembling Chaperone PAC3-PAC4 Heterodimer” (International Journal of Molecular Sciences, 2019).

The data set deals with the molecule itself. As to the kind of experiment: crystal structure; non-tagged PAC3 homodimer, 8.0 mg/mL in 20 mM Tris-HCl pH 7.5, 150 mM NaCl; crystals from 30% PEG2000 monomethyl ether, 0.1 M potassium thiocyanate, 20 °C; space group P3(1)21, 0.96 Å.

B1: human PAC3 homodimer, non-tagged (natural protein)
chain: MEDTPLVISKQKTEVVCGVPTQVVCTAFSSHILVVVTQFGKMGTLVSLEPSSVASDVSKPVLTTKVLLGQDEPLIHVFAKNLVAFVSQEAGNRAVLLAVAVKDKSMEGLKALREVIRVCQVW
notes: human proteasome-assembling chaperone PAC3; source: E. coli BL21-CodonPlus (DE3)-RIL, purified
As to B1, the binding result was “binds”.
